# “Also recorded” adds a separate entry of the source. *: point of attachment. Cbz = O=C(OCc1ccccc1)*; CH2F = FC*
# Tests used:
# MDA-MB-468 cells [1] = experiment: Apoptosis in MDA-MB-468 cells (DNA fragmentation ELISA, acridine orange staining); details: MDA-MB-468 cells preincubated with inhibitor for 3 hours, then EBIP and dasatinib; FIG. 15B
# MDA-MB-231 cells = experiment: MTT growth assay and CalcuSyn synergy analysis in MDA-MB-231 cells; assay type: cell-based, human
# Experimental: (§1) Growth inhibition assay included the following aspects. […] At the end of the treatment period, cells were incubated with 10% of 5 mg/mL stock of MTT and incubated for 3 hours at 37° C.
# (§2) Analysis of interaction between two drugs included the following aspects. Combination index (CI) method adapted for in vitro anticancer drug testing was used to determine the nature of interaction between the two agents as described by Majumdar APN, Banerjee S, Nautiyal J, et al. Curcumin synergizes with resveratrol to inhibit colon cancer. […] Based on CI values, the extent of synergism/antagonism may be determined.
# MDA-MB-468 xenografts = MDA-MB-468 xenografts in SCID mice, tumor growth; assay type: in vivo
# Experimental: Severe combined immunodeficient mice xenografts of MDA-MB-468 cells included the following aspects. […] When tumor burden reached 1,500 to 2,000 mg, mice were euthanized. The tumors were removed, cut into 20 to 30 mg fragment, and subsequently transplanted (s.c.) bilaterally into similarly conditioned 28 animals. […] Treatment was started on day 7 and continued until day 23. Animals and tumor burden were followed for up to 55 days. Tumor measurements were carried out at multiple time points during the experimental period. Mice were weighed and monitored for signs of toxicity. Tumor weights in SCID mice were estimated as tumor weight (mg)=(A×B2)/2, where A and B are the tumor length and width (in mm), respectively.
# MDA-MB-468 cells [2] = experiment: MTT growth assay and CalcuSyn synergy analysis in MDA-MB-468 cells; assay type: cell-based, human; details: for Dasatinib (Fa): MDA-MB-468
# Experimental: as §1, §2
# HER-3 = molecular target: T1, HER-3 (Homo sapiens, UniProt P21860); experiment: Heregulin-induced phosphorylation of HER-3 in MDA-MB-453 cells; assay type: cell-based; details: preincubation, then heregulin, FIG. 8, FIG. 19
# T1 construct: endogenous in cells; host or cells: MDA-MB-453
# Source text: (§3) The breast cancer MDA-MB-453 cells contain high levels of HER-2 and HER-3. […] Binding of heregulin HER-3 leads to activation and subsequent heterodimerization of HER-3 with one or more EGFR family members.
# (§4) Western blot analysis included the following aspects.
# [3] = tested on: Erks (extracellular signal-regulated kinases); experiment: TGF-α-induced phosphorylation of ERKs in HCT-116 cells (Western blot); assay type: cell-based; details: prior exposure, FIG. 6
# EGFR = molecular target: T2, EGFR (Homo sapiens, UniProt P00533); experiment: TGF-α-induced tyrosine phosphorylation of EGFR (Western blot); assay type: cell-based; details: preincubation 10 μg/ml for 30 min; 10 nM TGF-α for 10 min; FIG. 4
# T2 construct: endogenous in cells
# HER-2 = molecular target: T3, HER-2 (Homo sapiens, UniProt P04626); experiment: Heregulin-induced phosphorylation of HER-2 in MDA-MB-453 cells; assay type: cell-based; details: preincubation, then heregulin, FIG. 8, FIG. 19
# T3 construct: endogenous in cells; host or cells: MDA-MB-453
# Source text: as §3, §4
# [4] = tested on: breast cancer SKBR-3 cells; experiment: MTT growth assay in breast cancer SKBR-3 cells; assay type: cell-based, human; details: increasing concentrations, 48 h; FIG. 7
# Experimental: as §1
# c-Src = experiment: TGF-α-induced phosphorylation of Src in HCT-116 cells (Western blot); assay type: cell-based; details: prior exposure, FIG. 5
# [5] = tested on: colon cancer HCT-116 cells; experiment: MTT growth assay in colon cancer HCT-116 cells; assay type: cell-based
# Experimental: as §1
# [6] = tested on: breast cancer SKBR cell xenografts; experiment: SKBR cell xenografts in SCID mice; assay type: in vivo; details: FIG. 9
# Source text: SKBR cells express high levels of HER-2 but contain little no HER-1/EGFR or HER-3.
# T1 sequence (P21860 20-1342): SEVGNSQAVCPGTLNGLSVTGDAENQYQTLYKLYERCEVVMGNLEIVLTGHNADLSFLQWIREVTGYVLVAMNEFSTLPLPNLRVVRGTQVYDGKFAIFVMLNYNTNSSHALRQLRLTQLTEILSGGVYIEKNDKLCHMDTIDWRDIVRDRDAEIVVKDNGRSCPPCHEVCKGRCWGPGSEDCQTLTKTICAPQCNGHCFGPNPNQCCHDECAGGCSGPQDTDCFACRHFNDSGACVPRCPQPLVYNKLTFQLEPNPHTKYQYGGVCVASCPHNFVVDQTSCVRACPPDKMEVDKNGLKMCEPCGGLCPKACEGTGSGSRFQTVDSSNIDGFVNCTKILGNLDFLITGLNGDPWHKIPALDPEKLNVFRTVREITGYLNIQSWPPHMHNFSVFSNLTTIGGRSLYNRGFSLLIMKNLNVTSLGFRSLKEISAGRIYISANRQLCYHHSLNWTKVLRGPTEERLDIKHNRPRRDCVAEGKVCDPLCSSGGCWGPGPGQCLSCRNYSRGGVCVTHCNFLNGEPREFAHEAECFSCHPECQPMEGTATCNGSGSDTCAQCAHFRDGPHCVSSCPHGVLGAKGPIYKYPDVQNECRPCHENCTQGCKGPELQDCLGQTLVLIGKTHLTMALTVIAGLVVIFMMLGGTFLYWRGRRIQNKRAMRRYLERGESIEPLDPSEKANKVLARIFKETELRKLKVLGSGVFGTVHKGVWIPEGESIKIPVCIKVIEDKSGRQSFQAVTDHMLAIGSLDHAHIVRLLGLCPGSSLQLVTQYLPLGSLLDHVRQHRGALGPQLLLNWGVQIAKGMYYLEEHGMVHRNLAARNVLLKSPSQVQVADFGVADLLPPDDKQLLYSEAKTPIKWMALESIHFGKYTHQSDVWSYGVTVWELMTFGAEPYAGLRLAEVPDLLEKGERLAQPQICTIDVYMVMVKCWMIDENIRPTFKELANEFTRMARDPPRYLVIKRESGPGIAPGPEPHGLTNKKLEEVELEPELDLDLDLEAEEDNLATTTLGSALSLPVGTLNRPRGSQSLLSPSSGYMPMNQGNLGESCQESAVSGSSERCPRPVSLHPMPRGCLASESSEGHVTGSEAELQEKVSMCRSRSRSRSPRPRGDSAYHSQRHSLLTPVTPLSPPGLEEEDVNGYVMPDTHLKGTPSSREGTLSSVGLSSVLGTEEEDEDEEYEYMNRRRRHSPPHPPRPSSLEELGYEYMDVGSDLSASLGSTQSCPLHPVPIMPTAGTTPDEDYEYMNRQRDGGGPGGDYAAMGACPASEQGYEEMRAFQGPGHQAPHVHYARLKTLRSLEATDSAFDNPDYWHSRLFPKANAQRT
molecule,measurement,setting,value
Cbz-LEHD-CH2F,effect of caspase inhibitor on apoptosis induction by the combined therapy,MDA-MB-468 cells [1],blocked apoptosis induction by the combined therapy
Cbz-IETD-CH2F,effect of caspase inhibitor on apoptosis induction by the combined therapy,MDA-MB-468 cells [1],blocked apoptosis induction by the combined therapy
"Cc1nc(Nc2ncc(C(=O)Nc3c(C)cccc3Cl)s2)cc(N2CCN(CCO)CC2)n1 [Dasatinib, dasatinib]",Dasatinib (Fa),MDA-MB-231 cells; Dasatinib 0.50 μM,0.354
same,Dasatinib (Fa),MDA-MB-231 cells; Dasatinib 1.0 μM,0.322
same,Dasatinib (Fa),MDA-MB-231 cells; Dasatinib 2.0 μM,0.353
same,Dasatinib (Fa),MDA-MB-231 cells; Dasatinib 4.0 μM,0.392
same,"tumor growth, significance of inhibition","MDA-MB-468 xenografts; P<0.05, FIG. 16, Table 3",no significant inhibition
same,"tumor weight at the end of 55 days, Mean ± SD","MDA-MB-468 xenografts; day-55, dasatinib 10 mg/kg gavage and/or EBIP 25 μg/mouse s.c., every other day, day 7 to 23",584 ± 189 mg
same,inhibition (suppression) of tumor growth,"MDA-MB-468 xenografts; vs vehicle-treated controls, dasatinib 10 mg/kg gavage and/or EBIP 25 μg/mouse s.c., every other day",about 27%
same,Dasatinib (Fa),MDA-MB-468 cells [2]; Dasatinib 0.50 μM,0.216
same,Dasatinib (Fa),MDA-MB-468 cells [2]; Dasatinib 1.0 μM,0.286
same,Dasatinib (Fa),MDA-MB-468 cells [2]; Dasatinib 2.0 μM,0.315
same,Dasatinib (Fa),MDA-MB-468 cells [2]; Dasatinib 4.0 μM,0.382
"rEGFR-447: rat ERRP that includes amino acids 1-447 but lacks the U region (SEQ ID NO: 15) (protein, listed as Rattus norvegicus) MRPSGTARTTLLVLLTALCAAGGALEEKKVCQGTSNRLTQLGTFEDHFLSLQRMYNNCEVVLGNLEITYVQRNYDLSFLKTIQEVAGYFLIALNTVERIPSEDLQIIRGNALYENTYALAILSNYGTNRTGLRELPMRNLQEILIGAVRFSNNPILCNMDTIQWRDIVQNVFMSNMSMDLQSHPSSCPKCDPSCPNGSCWGGGEENCQKLTKIICAQQCSHRCRGRSPSDCCHNQCAAGCTGPQKSDCLVCQKFQDEATCKDTCPPLMLYNPTTYQMDVNPEGKYSFGATCVKNCPRNYVVTDHGSCVRACGPDYYEVEEDGIRKCKKCDGPCRKVCNGIGIGEFKDTLSINATNIKHFKYCTAISGDLHILPVAFKGDSFTRTPPLDPRELEILKTVKEITGSLLIQAWPENWTDLHAFENLEIIRGRTKQHGQFSLAVVGLNITS",inhibition of heregulin-induced phosphorylation/activation of HER-3,HER-3,neither rEGFR-447 nor hEGFR-501 is effective; also recorded: neither rEGFR-447 nor hEGFR-501 re effective
same,attenuation of TGF-α-induced phosphorylation of Erks,[3],not
same,attenuation of TGF-α-induced tyrosine phosphorylation of EGFR (amino acid 845),EGFR,do not attenuate
same,inhibition of heregulin-induced phosphorylation/activation of HER-2,HER-2,neither rEGFR-447 nor hEGFR-501 is effective; also recorded: neither rEGFR-447 nor hEGFR-501 re effective
same,inhibition of growth of SKBR-3 cells,[4],neither rEGFR-447 nor hEGFR-501 caused any apparent change in the growth
same,attenuation of TGF-α-induced phosphorylation of Tyr416 of c-Src,c-Src,less attenuation
same,inhibition of growth (MTT),"[5]; increasing doses, FIG. 3",only marginally effective
"ERRP: rat ERRP that includes amino acids 1-478 and includes the U region (SEQ ID NO: 16); pan-erbB inhibitor (protein, listed as Rattus norvegicus) MRPSGTARTTLLVLLTALCAAGGALEEKKVCQGTSNRLTQLGTFEDHFLSLQRMYNNCEVVLGNLEITYVQRNYDLSFLKTIQEVAGYFLIALNTVERIPSEDLQIIRGNALYENTYALAILSNYGTNRTGLRELPMRNLQEILIGAVRFSNNPILCNMDTIQWRDIVQNVFMSNMSMDLQSHPSSCPKCDPSCPNGSCWGGGEENCQKLTKIICAQQCSHRCRGRSPSDCCHNQCAAGCTGPQKSDCLVCQKFQDEATCKDTCPPLMLYNPTTYQMDVNPEGKYSFGATCVKNCPRNYVVTDHGSCVRACGPDYYEVEEDGIRKCKKCDGPCRKVCNGIGIGEFKDTLSINATNIKHFKYCTAISGDLHILPVAFKGDSFTRTPPLDPRELEILKTVKEITGSLLIQAWPENWTDLHAFENLEIIRGRTKQHGQFSLAVVGLNITSLPWQVPSLSWQAVTRPLHPLAQNRVSWDTGP",inhibition of heregulin-induced phosphorylation/activation of HER-3,HER-3,able to inhibit; also recorded: about as equally effective as EBIP
same,attenuation of TGF-α-induced phosphorylation of Erks,[3],greatly attenuated
same,attenuation of TGF-α-induced tyrosine phosphorylation of EGFR (amino acid 845),EGFR,greatly abrogates this stimulation
same,tumor growth of SKBR xenografts,"[6]; SCID mice, vs vehicle",noticeably decreased
same,inhibition of tumor growth,"[6]; intratumoral 50 μg once a day, day 13 to 26, end of 40 day period, vs controls",over 50%
same,inhibition of heregulin-induced phosphorylation/activation of HER-2,HER-2,able to inhibit; also recorded: about as equally effective as EBIP
same,inhibition of growth of MDA-MB-468 cells,"MDA-MB-468 cells [2]; immunoaffinity-purified protein, FIG. 12D",equally effective
same,inhibition of growth of SKBR-3 cells,[4],markedly inhibit the growth in a dose-dependent manner
same,attenuation of TGF-α-induced phosphorylation of Tyr416 of c-Src,c-Src,abrogated
same,inhibition of growth,"[5]; dose of 20 μg/mL, vs corresponding controls, FIG. 18",70%
